Paper PMC7244016, “Knock-down of the TIM/TIPIN complex promotes apoptosis in melanoma cells” (Oncotarget, 2020)

Target: T1, Timeless (TIM), full length, FLAG-tagged (human, UniProt Q9UNS1 1-1208)
T1 construct: expressed from pcDNA4-Flag-Timeless; The plasmid is named Flag-Timeless; the results speak of a fused 3xFLAG-tag; also called flag-TIM; pcDNA4-Flag-Timeless
T1 sequence (looked up): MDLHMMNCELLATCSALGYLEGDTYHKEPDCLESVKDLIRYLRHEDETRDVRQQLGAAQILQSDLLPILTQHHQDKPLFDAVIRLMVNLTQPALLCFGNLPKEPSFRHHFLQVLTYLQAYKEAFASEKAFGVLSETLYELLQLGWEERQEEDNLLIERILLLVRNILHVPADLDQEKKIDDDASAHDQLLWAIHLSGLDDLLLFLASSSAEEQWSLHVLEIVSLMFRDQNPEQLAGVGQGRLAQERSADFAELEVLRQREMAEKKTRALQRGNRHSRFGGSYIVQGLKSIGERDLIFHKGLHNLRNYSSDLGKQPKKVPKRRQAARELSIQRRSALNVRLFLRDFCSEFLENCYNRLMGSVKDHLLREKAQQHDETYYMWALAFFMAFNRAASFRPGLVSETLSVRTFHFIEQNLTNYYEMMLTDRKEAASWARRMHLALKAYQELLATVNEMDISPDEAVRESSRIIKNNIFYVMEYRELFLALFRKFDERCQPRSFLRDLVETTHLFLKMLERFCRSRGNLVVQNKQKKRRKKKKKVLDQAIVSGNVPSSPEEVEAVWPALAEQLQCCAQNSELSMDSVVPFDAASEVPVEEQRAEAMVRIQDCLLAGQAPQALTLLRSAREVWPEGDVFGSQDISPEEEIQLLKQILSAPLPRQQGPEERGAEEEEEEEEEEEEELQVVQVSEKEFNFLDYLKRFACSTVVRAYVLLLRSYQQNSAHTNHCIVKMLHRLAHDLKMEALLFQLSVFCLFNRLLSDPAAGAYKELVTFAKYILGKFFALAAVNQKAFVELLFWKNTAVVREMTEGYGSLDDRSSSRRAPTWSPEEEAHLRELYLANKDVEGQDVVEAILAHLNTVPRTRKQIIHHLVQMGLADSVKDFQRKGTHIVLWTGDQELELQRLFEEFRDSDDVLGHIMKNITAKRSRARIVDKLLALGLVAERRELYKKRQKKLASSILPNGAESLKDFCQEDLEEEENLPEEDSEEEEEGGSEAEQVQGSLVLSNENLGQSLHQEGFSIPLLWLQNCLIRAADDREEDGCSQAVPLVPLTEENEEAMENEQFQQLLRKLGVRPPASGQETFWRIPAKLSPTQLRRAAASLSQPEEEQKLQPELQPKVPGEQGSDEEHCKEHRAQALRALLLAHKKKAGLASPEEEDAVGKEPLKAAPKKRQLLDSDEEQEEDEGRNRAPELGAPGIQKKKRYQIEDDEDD
Assay: SEC; complex co-expressed in 293F cells and FLAG-purified; Superose 6 column in 50 mM HEPES pH 7.8, 150 mM NaCl, 0.5 mM TCEP; peak fractions checked by SDS-PAGE/Coomassie and immunoblot with TIM and TIPIN antibodies
Settings: both partners purified

B1: TIM-interacting protein (TIPIN), full length, FLAG-tagged (natural protein, human, UniProt Q9BVW5 1-301, looked up)
chain: MLEPQENGVIDLPDYEHVEDETFPPFPPPASPERQDGEGTEPDEESGNGAPVRVPPKRTVKRNIPKLDAQRLISERGLPALRHVFDKAKFKGKGHEAEDLKMLIRHMEHWAHRLFPKLQFEDFIDRVEYLGSKKEVQTCLKRIRLDLPILHEDFVSNNDEVAENNEHDVTSTELDPFLTNLSESEMFASELSRSLTEEQQQRIERNKQLALERRQAKLLSNSQTLGNDMLMNTPRAHTVEEVNTDEDQKEESNGLNEDILDNPCNDAIANTLNEEETLLDQSFKNVQQQLDATSRNITEAR
notes: expressed from pcDNA3-Flag-Tipin; also called flag-TIPIN; pcDNA3-Flag-Tipin
Q: B1 was tested. Which “stoichiometry N” value did it give?
A: 1
